This assay has as its target (7× His)-PSD-95-PDZ2 wild type (UniProt P78352). The assay can be described thus: FP competition.

[ ]: non-standard residue; d: D form.

(7× His)-PSD-95-PDZ2 wild type, sequence (P78352 160-246): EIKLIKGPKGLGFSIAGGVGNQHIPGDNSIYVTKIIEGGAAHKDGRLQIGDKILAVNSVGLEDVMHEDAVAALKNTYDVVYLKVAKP

B1: cyclic nNOS β-hairpin peptide T116M (peptide)
peptide: cyclo(THLETTFTGDGMPKTIRVTQ[dP]GQ)
modifications: ring closure inferred; not fully specified
As for B1, the inhibition constant (Ki) is 3.76 µM and the Relative Ki (Ki mut/Ki WT) is 2.51.

Broadly, the Ki is the equilibrium dissociation constant of an inhibitor or competing ligand from its target. A high value points to weaker binding.

These data come from patent US20230220021A1, “CYCLIC PEPTIDE INHIBITORS OF PSD-95 AND USES THEREOF” (University of Copenhagen, priority 2020, published 2023).
